What was measured:
[1] = molecular target: T1, extracellular region of human PD-1 (human, UniProt Q15116 25-170); assay: method not given
T1 construct: also called extracellular domain of human PD-1

[2] = molecular target: T1, extracellular region of human PD-1; assay: method not given; lower end of the printed range 50-70 nM

T1 sequence (Q15116 25-170 limits assumed): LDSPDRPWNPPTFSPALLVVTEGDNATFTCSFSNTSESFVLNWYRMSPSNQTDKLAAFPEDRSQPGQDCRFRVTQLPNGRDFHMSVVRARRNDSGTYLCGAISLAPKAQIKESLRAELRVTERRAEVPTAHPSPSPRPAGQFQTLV

binding half-life [1]: 15 to 20 s
Kd [2]: 50 to 70 nM
B1: PD-1 agonist VHH (camelid PD-1 agonist VHH) (VHH)
VHH: EVQLVESGGALVQPGGSLRLSCAASGFTFSSYAMTWVRQAPGKGPEWVSAIASDGASTSYLDSVKGRFTVSRDNAKNTLYLQMNSLKPEDTAVYYCARGGYLTYDRYGQGTQVTVSS
notes: also called PD-1 VHH domain; PD-1 VHH antibody
